{
  "source": "patent US7910100B2",
  "about": "“Antibodies directed to the mammalian EAG1 ion channel protein” (Max-Planck-Gesellschaft zur Forderung der Wissen, priority 2004, dated 2011)",
  "key": {"Eag2": {"system": "Eag2", "assay": "BIAcore cross-reactivity with Eag family member Eag2", "type": "binding", "settings": "10 μg/ml antibody, flow rate 20 μl/min; chip coated with Eag2 equivalent regions", "method": "(§1) In order to analyse cross-reactivity of anti-Eag1 antibodies of the invention with the most homologous Eag family member Eag2 a BIAcore™ binding analysis was performed. BIAcore chips were coated with Eag1 C-terminus (amino acids 694 to 962), the H5 region (amino acids 374 to 452) or Eag2 (the equivalent regions fused in a single construct). The interaction with anti-Eag1 antibodies ImAb1 and ImAb3 were analysed using 10 μg/ml antibody at a flow rate of 20 μl/min."}, "Eag1": {"system": "Eag1", "assay": "BIAcore binding analysis on Eag1 C-terminus and H5 region", "settings": "10 μg/ml antibody, flow rate 20 μl/min; chips coated with Eag1 C-terminus (aa 694 to 962) or H5 region (aa 374 to 452)", "method": "as §1"}, "Eag1 current": {"molecular_target": "T1, Eag1 current (Homo sapiens, UniProt O95259)", "T1 construct": "expressed in transfected cells", "T1 sequence (O95259 1-962 isoform O95259-2)": "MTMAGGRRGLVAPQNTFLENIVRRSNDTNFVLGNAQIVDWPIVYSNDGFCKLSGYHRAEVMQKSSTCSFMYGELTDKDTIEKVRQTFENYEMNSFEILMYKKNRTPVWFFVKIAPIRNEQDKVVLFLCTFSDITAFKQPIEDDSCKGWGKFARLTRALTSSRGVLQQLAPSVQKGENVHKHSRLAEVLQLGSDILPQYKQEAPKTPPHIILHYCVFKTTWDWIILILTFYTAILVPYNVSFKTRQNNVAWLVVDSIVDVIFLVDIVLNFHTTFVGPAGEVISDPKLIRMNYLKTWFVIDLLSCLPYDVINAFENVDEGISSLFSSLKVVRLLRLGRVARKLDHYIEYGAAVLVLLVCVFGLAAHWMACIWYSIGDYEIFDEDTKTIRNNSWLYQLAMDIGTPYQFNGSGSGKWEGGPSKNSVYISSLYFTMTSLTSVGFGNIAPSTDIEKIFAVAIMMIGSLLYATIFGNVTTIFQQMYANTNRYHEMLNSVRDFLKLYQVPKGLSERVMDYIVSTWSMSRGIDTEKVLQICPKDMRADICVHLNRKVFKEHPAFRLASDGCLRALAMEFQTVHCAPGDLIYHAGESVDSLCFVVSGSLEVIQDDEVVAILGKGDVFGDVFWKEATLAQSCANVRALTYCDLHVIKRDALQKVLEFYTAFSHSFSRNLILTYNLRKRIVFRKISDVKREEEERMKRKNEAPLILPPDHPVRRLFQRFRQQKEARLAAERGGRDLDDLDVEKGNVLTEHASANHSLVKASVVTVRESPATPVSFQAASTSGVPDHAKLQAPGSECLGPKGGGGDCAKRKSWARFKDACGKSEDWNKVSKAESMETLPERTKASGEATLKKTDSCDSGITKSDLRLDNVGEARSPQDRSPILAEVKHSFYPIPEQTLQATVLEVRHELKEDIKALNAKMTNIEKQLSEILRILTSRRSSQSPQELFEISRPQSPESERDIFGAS", "assay": "Two-electrode voltage clamp in Eag1-expressing oocytes", "type": "cell-based", "settings": "10% hybridoma supernatant", "method": "In order to analyse the functional properties of anti-Eag1 antibodies of the invention were analysed by a two-electrode voltage clamp experiment. Therefore, Oocyte preparation and electrophysiological recordings were performed as described in Stühmer, W., 1992, Methods in Enzymology 207. Oocytes were injected with synthetic mRNA coding for Eag1, incubated for 48 h and recorded in NFR (115 mM NaCl, 1.8 CaCl2, 2.5 KCl, 10 Hepes pH 7.2) until stable traces were recorded. Then, 10% of the corresponding hybridoma supernatant producing ImAb1 or ImAb3 was added to the chamber and current amplitudes were further monitored."}, "IPC-298 melanoma cells": {"system": "IPC-298 melanoma cells", "assay": "IPC-298 cell proliferation with secondary immunotoxin Mab-ZAP", "type": "cell-based, human", "settings": "in combination with secondary immunotoxin Mab-ZAP (100 ng/well), 72 hours", "method": "In order to evaluate the specific suitability and efficacy of anti-Eag1 monoclonal antibodies for conjugation as primary immunotoxin, in vitro cell proliferation assays were performed in the presence of anti-Eag1 antibody in conjunction with a secondary antibody conjugated to saporin, a ribosome-inactivating protein from the seeds of the plant Saponaria officinalis. The secondary immunotoxin binds to the anti-Eag1 antibody is internalized into the cell alongside the primary antibody. Once the immunotoxin is internalised, saporin breaks away from the targeting agent and inactivates the ribosomes, which causes protein inhibition and, ultimately, cell death.\nFor the assay (FIG. 8a) 3000 IPC-298 cells were seeded in 60 μl/well FCS-containing medium on 96-well plates overnight. 100 ng/well (1 ng/μl) Mab-ZAP was mixed with 10 ng/μl of mouse monoclonal anti-Eag1 antibodies ImAb1 or ImAb4 in 40 μl FCS-containing medium for 1 h at 37° C. and then directly added to the cells in quadruplicates. […] The quantity of formazan product was measured by the amount of 490 nm absorbance using an ELISA plate reader.\nFor the assay shown in FIG. 8b 3000 IPC-298 cells were seeded in 60 μl/well FCS-containing medium on 96-well plates overnight. […] Absorbance was measured using a spectrofluorometer at 590 nm every 30 min."}},
  "data": [
    {"molecule": "ImAb1: mouse monoclonal anti-Eag1 antibody; VL SEQ ID NO: 43, VH SEQ ID NO: 44; binds C-terminus of Eag1 (antibody, listed as Mus musculus) heavy: MNFGFSLIFLVLVLKGVQCEVKLVESGGGLVKPGGSLKLSCAASGFTFSNYAMSWVRQTPEKRLEWVASISSDGDTYFPDNVKGRFTISRENAGNILFLQMSSLRSEDTAMYYCARGFMITFWGQGTLVTVSAAKTTPPSVYPLAPGCGDTTGSSVTLGCLVKGYFPESVTVTWNSGSLSSSVHTFPALLQSGLYTMSSSVTVPSSTWPSQTVTCSVAHPASSTTVD light: MDMRAPAQFFGILLLWFPGIRCDIKMTQSPSSMYASLGERVTITCKASQDIKSYLSWYQQKPWKSPKILIYYATSLADGVPSRISGSGSGQDYSLTISSLESDDTATYYCLQHGESPYTFGGGTKLEIKRADAAPTVSIFPPSSEQLTSGGASVVCFLNNFYPKDINVKWKIDGSERQNGVLNSWTDQDSKDSTYSMSSTLTLTKDEYERHNSYTCEATHKTSTSPIVKSFNRNEC", "values": [
      {"measurement": "cross-reactivity with Eag2", "setting": "Eag2", "value": "do not cross-react with Eag2"},
      {"measurement": "binding region on Eag1 antigen", "setting": "Eag1", "value": "specifically binds to the C-terminus of the Eag1 antigen"},
      {"measurement": "inhibition of Eag1 current", "setting": "Eag1 current", "value": "No inhibition of Eag1 current was detected"}
    ]},
    {"molecule": "ImAb4: mouse monoclonal anti-Eag1 antibody, IgG2b kappa; light chain SEQ ID NO: 2, heavy chain SEQ ID NO: 4 (antibody, listed as Mus musculus) heavy: MRVLILLWLFTAFPGILSDVQLQESGPGLVKPSQSLSLTCTVTGYSITSDYAWNWIRQFPGNKLEWMGYISYSGSTIYNPSLKSRISITRDTSKNQFFLQLNSVTTEDTATYYCARFGNYGNTLNYWGQGTSVTVSSAKTTPPSVYPLAPGCGDTTGSSVTLGCLVKGYFPESVTVTWNSGSLSSSVHTFPALLQSGLYTMSSSVTVPSSTWPSQTVTCSVAHPASSTTVDKKLEPSGPISTINPCPPCKECHKCPAPNLEGGPSVFIFPPNIKDVLMISLTPKVTCVVVDVSEDDPDVQISWFVNNVEVHTAQTQTHREDYNSTIRVVSTLPIQHQDWMSGKEFKCKVNNKDLPSPIERTISKIKGLVRAPQVYILPPPAEQLSRKDVSLTCLVVGFNPGDISVEWTSNGHTEENYKDTAPVLDSDGSYFIYSKLNMKTSKWEKTDSFSCNVRHEGLKNYYLKKTISRSPGK light: MKLPVRLLVLMFWIPASSSDVVMTQTPLSLPVSLGDQASISCRSSQSLVHSNGNTYLHWYLQKPGQSPKLLIYKVSNRFSGVPDRFSGSGSGTDFTLKISRVEAEDLGVYFCSQSTHVPPTFGGGTKLEIKRADAAPTVSIFPPSSEQLTSGGASVVCFLNNFYPKDINVKWKIDGSERQNGVLNSWTDQDSKDSTYSMSSTLTLTKDEYERHNSYTCEATHKTSTSPIVKSFNRNEC", "values": [
      {"measurement": "inhibition of cell proliferation", "setting": "IPC-298 melanoma cells", "value": "inhibition of IPC-298 melanoma cell proliferation"}
    ]}
  ]
}
